For one assay, the target named is T1, ANG2 (human, UniProt O15123 19-496, limits assumed).
T1 sequence: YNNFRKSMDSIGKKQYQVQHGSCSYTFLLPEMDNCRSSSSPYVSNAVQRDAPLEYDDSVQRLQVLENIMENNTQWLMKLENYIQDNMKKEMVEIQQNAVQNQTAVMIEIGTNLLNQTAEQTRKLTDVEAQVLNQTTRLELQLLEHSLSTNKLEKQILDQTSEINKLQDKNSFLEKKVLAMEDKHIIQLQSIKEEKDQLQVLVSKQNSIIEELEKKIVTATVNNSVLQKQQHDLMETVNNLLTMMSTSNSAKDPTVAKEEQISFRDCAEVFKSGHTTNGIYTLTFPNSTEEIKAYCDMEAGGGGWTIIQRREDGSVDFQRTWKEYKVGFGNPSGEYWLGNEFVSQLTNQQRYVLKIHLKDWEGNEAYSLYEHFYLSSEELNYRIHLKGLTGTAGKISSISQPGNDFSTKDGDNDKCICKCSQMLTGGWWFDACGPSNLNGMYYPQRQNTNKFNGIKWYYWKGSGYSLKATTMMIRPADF
In words: cell-based or functional assay.

A further assay deals with T2, human Ang2-RBD-muFc (human, UniProt O15123 275-496, limits assumed).
T2 construct: also called Human ANG2 (KinExA); not shown: murine Fc (muFc)
T2 sequence: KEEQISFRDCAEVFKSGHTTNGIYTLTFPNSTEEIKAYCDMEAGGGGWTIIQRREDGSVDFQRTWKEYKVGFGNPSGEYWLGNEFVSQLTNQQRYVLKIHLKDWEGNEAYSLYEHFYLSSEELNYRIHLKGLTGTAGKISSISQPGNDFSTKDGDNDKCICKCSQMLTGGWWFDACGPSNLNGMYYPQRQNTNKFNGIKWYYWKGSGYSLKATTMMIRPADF
In words: KinExA, human ANG2 (Ang2-RBD-muFc) by the table's title; the column's head prints VEGFA-121. As to the method:
All KinExA® experiments were performed at room temperature (RT) using PBS pH 7.4 with 0.01% BSA and 0.01% Tween® 20 (BioRad, #161-0781) as running buffer. […] A flow rate of 0.25 ml/min was used. A constant amount of Ang2-RBD-muFc (50 pM and in a second experiment 500 pM) was titrated with tested antibody by twofold serial dilution starting at 4 nM (concentration range 1.95 pM-4000 pM). Antigen-antibody complexes were incubated at RT for at least 8 h to allow equilibrium to be reached. Equilibrated mixtures were then drawn through a column of Anti-Ang2 antibody (MAB098) coupled beads in the KinExA® system at a volume of 750 μl for 50 pM constant Ang2 and at a volume of 188 μl for 500 pM constant Ang2 permitting unbound Ang2 to be captured by the beads without perturbing the equilibrium state of the solution. Bound Ang2 was detected using a second biotinylated anti-Ang2 antibody (BAM0981) with a concentration of 250 ng/ml and following by an injection of 250 ng/ml Streptavidin Alexa Fluor™ 647 conjugate in sample buffer. Each sample was measured in duplicates for all equilibrium experiments. The KD was obtained from non-linear regression analysis of the data using a one-site homogeneous binding model contained within the KinExA® software (Version 4.0.11) using the “standard analysis” method. […]
(In KinExA the mixture passes briefly over coated beads that capture the unbound partner.)

B1: Nesvacumab-analogue (antibody, human IgG1, kappa, L234A L235A, V domains shown)
VH: AVQLVASGGGLVQPGGSLRLSCAASGFTFSSYDIHWVRQATGKGLEWVSAIGPAGDTYYPGSVKGRFTISRENAKNSLYLQMNSLRAGDTAVYYCARGLITFGGLIAPFDYWGQGTLVTVSS
VL: IVLTQSPGTLSLSPGERATLSCRASQSVSSTYLAWYQQKPGQAPRLLIYGASSRATGIPDRFSGSGSGTDFTLTISRLEPEDFAVYYCQHYDNSQTFGQGTKVEIKR
notes: also called Nesvacumab (INN); Nesvacumab Mab
For the molecule B1, in the assay with ANG2, the “IC50, pTie2-Assay (Tie2 phosphorylation in Hek293 cells expressing Tie2, stimulated with Ang-2)” value was 6 nM. The molecule further registered a Kd with human Ang2-RBD-muFc of 0.01 nM.

What is called Kd is the free concentration of one partner at which half of the binding sites on the other are occupied at equilibrium, for simple one-to-one binding. Low values mean higher affinity, high ones lower affinity.

The values are drawn from patent publication US20220073599A1 (Hoffmann-La Roche, published 2022).
